The text below walks through data of patent publication US20230129258A1 (Bicycle, published 2023).

Assay [1] concerns the target T1, human Nectin-4 extracellular domain (human, UniProt Q96NY8 32-349, biotinylated where captured on the streptavidin chip).
T1 construct: extracellular domain; also called Nectin-4 (human); Biotinylated - Nectin-4 extracellular domain
T1 sequence (looked up): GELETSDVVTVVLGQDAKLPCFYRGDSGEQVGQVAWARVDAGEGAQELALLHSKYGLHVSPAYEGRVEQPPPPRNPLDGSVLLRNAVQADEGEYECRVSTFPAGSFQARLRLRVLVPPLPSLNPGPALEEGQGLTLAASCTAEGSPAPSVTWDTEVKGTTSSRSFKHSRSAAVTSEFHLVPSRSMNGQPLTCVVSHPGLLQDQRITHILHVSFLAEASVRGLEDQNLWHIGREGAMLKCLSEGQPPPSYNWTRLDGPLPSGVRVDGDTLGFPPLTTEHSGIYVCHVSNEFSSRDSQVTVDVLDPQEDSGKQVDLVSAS
Description: SPR, direct binding of BCY11863 to immobilized human Nectin-4, 1:1 fit.

Assay [2] addresses T2, CD137 on Jurkat reporter cells (Promega kit CS196005) (UniProt Q07011 24-255, limits assumed). Description: cell-based or functional assay.
For assay [3], the target named is T1, human Nectin-4 extracellular domain. Description: SPR direct binding, biotinylated Nectin-4 ECD on streptavidin chip, 37° C., n = 9.
The target is the same in assay [4]. Description: SPR direct binding, biotinylated Nectin-4 ECD on streptavidin chip, 25° C., n = 7.
Assay [5] concerns the target T2, CD137 on Jurkat reporter cells (Promega …). Description: cell-based or functional assay. The source holds these as a separate data set.
Assay [6] has as its target T3, rat CD137 extracellular domain (rat, UniProt Q4W8J3 24-189).
T3 sequence: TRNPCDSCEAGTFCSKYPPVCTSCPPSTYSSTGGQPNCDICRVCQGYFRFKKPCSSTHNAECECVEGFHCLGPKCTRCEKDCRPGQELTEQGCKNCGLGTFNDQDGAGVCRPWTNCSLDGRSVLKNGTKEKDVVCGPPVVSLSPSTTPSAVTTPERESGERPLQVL
Description: SPR dual binding, BCY11863 captured on biotinylated human Nectin-4, n = 2.

Assay [7] has as its target T4, mouse CD137 extracellular domain (mouse, UniProt P20334 24-187).
T4 construct: extracellular domain
T4 sequence (looked up): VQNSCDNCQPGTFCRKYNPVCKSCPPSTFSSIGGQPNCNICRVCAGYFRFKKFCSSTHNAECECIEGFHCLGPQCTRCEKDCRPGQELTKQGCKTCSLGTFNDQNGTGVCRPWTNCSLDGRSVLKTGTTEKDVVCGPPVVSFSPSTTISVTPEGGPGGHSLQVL
The assay is described as above.

In assay [8] the target is T5, human CD137 extracellular domain (human, UniProt Q07011 24-186, biotinylated where captured on the streptavidin chip).
T5 construct: extracellular domain; Section 17 says only 'Recombinant human CD137 (R&D systems)'; also called CD137 (human); Recombinant human CD137 (R&D systems)
Description: SPR dual binding, BCY11863 captured on biotinylated human Nectin-4, soluble CD137 ECD passed over, n = 4.

For assay [9], the target named is T1, human Nectin-4 extracellular domain. Description: SPR, one example sensorgram (FIG. 21A), immobilized Nectin-4.
The target in assay [10] is T5, human CD137 extracellular domain. Description: SPR, direct binding of BCY11863 to immobilized human CD137, 1:1 fit; the text says the reported KD may be an overestimation (avidity).
Assay [11] has as its target T6, cyno (NHP) Nectin-4 extracellular domain (cyno (NHP), UniProt A0A2K5WES1 32-349, biotinylated where captured on the streptavidin chip).
T6 construct: extracellular domain
T6 sequence: T1 sequence (looked up) with V39A, I230V
Description: SPR direct binding, biotinylated Nectin-4 ECD on streptavidin chip, 25° C., n = 9.

The target in assay [12] is T7, mouse Nectin-4 extracellular domain (mouse, UniProt Q8R007 31-347, biotinylated where captured on the streptavidin chip).
T7 construct: extracellular domain
T7 sequence (looked up): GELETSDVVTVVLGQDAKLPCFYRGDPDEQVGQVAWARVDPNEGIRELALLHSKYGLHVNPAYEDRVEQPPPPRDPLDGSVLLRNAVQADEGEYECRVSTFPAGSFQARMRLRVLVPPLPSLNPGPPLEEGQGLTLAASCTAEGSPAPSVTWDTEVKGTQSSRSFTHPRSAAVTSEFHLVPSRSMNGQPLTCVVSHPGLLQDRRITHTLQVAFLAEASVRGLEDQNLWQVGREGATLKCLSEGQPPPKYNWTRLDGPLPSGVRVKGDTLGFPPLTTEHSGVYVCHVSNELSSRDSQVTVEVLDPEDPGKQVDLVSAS
The description is as above.

Positions count from the first letter of the chain named. Starred links: 1 amine or outer side, 2 acyl side, 3 side chain; linkers in the order of their positions; H or OH if unused. Positions of bridges follow the written chain, without caps; N, C: chain ends. Non-standard residues stand in square brackets, D forms with d. Chains are numbered I, II in the order given. No end group written: not given here. dLys(PYA) = D-lysine Nε-acylated with 4-pentynoic acid, clicked (triazole) to the linker azide, O=C(CCc1cn([*:3])nn1)NCCCC[C@@H](N[*:1])C(=O)[*:2]; TATA = O=C(CC[*:1])N1CN(C(=O)CC[*:2])CN(C(=O)CC[*:3])C1; 1Nal = N[C@@H](Cc1cccc2ccccc12)C(=O)O; Hyp = O=C(O)[C@@H]1C[C@@H](O)CN1; hArg = N=C(N)NCCCC[C@H](N)C(=O)O; tBuAla = CC(C)(C)C[C@H](N)C(=O)O; Nle = CCCC[C@H](N)C(=O)O

T2 sequence (Q07011 24-255 limits assumed): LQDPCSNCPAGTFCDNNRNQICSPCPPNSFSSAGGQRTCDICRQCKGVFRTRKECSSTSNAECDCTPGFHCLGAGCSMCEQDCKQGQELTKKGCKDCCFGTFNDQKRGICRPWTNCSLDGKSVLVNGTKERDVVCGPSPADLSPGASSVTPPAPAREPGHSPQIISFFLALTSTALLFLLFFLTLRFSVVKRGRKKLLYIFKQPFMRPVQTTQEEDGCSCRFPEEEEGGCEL
T5 sequence (Q07011 24-186): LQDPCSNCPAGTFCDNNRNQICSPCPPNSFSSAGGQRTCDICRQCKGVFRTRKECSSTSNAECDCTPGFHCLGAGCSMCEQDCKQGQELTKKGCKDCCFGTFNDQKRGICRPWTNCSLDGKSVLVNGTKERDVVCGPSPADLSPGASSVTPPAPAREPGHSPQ

B1: heterotandem bicyclic peptide complex BCY11863 (peptide)
peptide 1: CP[1Nal][dD]CM[hArg]DWSTP[Hyp]WC
peptide 2: Ac-C[tBuAla]PE[dLys(PYA)]PYCFADPY[Nle]CA
modifications: linker I:1-I:5-I:15, II:1-II:8-II:15 via TATA; not fully specified (bridges); also: 1:2 complex: BCY8116 + 2x BCY8928
notes: also called Nectin-4/CD137 heterotandem
In general, koff refers to the first-order rate constant of dissociation. A lower koff goes with a long-lived complex. One may read the kon as the second-order rate constant of association. Read a low kon as slower complex formation. Take B1: in assay [1], the koff worked out at 0.00229 s⁻¹ and the kon is 561000 M⁻¹ s⁻¹. In assay [2], the “Arithmetic mean EC50 (nM), CT26#7 co-culture” value amounted to 0.14 nM; the “Arithmetic mean EC50 (nM), HT1376 co-culture” value is 0.52 nM; the “Arithmetic mean EC50 (nM), MC38#13 co-culture” value came to 0.31 nM; the “Arithmetic mean EC50 (nM), MDA-MB-468 co-culture” value was 0.23 nM. In addition, in assay [2], the “Arithmetic mean EC50 (nM), NCI-H292 co-culture” value worked out at 0.28 nM; the “Arithmetic mean EC50 (nM), NCI-H322 co-culture” value came to 0.33 nM; the “Arithmetic mean EC50 (nM), T47D co-culture” value was found to be 0.42 nM. The molecule also displayed a Kd in [3] of 5.2 nM. Also, the Kd in assay [4] turned out to be 5 nM. Moreover, in assay [5], the “EC50 (nM), NCI-H292 co-culture” value worked out at 0.168 nM and the “Fold Induction over Background, NCI-H292 co-culture” value is 81 fold. Also, the binding result in [6] is listed as “no binding”. In addition, the binding result in assay [7] is on record as “no binding”. In assay [8], this molecule returned a Kd of 6.3 nM. In assay [9], the Kd stood at 4.1 nM. In [10], the Kd is 0.368 nM. In addition, the Kd in assay [11] came out at 27 nM. Besides, the Kd in assay [12] came out at 4.6 nM.
